Measurements from US8420311B2, “Method to block the infection by flaviviruses, molecules and uses” (Centro de Ingenieria Genetica y Biotecnologia, priority 2006, dated 2013).

Legend:
[1] = system: DV2; type: cell-based, dengue virus; details: protein 25 μg/mL pre-incubated with virus 1 hour at 25° C.
Protocol: (§1) FIG. 21. Chromatographic profile of the purification of the A2MR using affinity chormatography with immobilized A2M (A) and SDS-PAGE analysis of fractions eluted using a 5-15% gradient gel (B). Effect of the pre-incubation of chromatography fractions with DV2 on the infection of Vero cells (C). The plaque reduction neutralization assay was performed as described in FIG. 20. (D) Mice protection assay using the DV-induced encephalitis model.
To this aim, a viral preparation containing 100 infective viral particles was pre-incubated with the different fractions at a protein concentration of 25 μg/mL for 1 hour at 25° C. Next, the virus was added to Vero cell monolayers and infection was allowed to occur for 45 minutes at 37° C. Afterwards virus/protein mixtures were removed, the cells were washed with fresh medium and finally the cells were incubated for 5 days at 37° C. in high density medium.

[2] = system: DV2; experiment: Mice protection assay using the DV-induced encephalitis model; type: in vivo, Balb/C mice; details: intra-cranial lethal dosis of DV2 (FIG. 21D)
Protocol: as §1
FIG. 22. Mice protection assay using the DV-induced encephalitis model. PepNR GAGs binding: peptide formed by a sequence fragment of binding to glycosaminoglycans and a non-related sequence fragment.
Groups of 12 adult Balb/C mice (20 g average body weight) were anesthesized, inoculated by intracranial injection with lethal dosis of DV2 and observed daily for 21 days. The mixtures of peptides with the virus were inoculated in the same way. The volume of the sample inoculated was 20 μL.
The mouse model of dengue encephalitis was used to investigate the potential of the peptide HDIII3CL to protect against DV2 infection. A group of 12 mice were inoculated with lethal dosis of DV2 in combination with 15 μg and 1.5 μg of HDIII3CL peptide. As negative control was used a peptide composed by fragment of 14 aminoacids of a sequence with known heparin binding activity followed by 16 aminoacids of a sequence non-related to the envelope protein of DV. […]

[3] = system: DV1 West Pac 74; experiment: Inhibition of the infection of Vero cells by a natural ligand of the A2MR receptor or anti-receptor antibodies (lytic plaques); type: cell-based, dengue virus; details: inhibition percentage; RAP13 and BSA 100 μg/mL, antibody preparations 1/100 dilution; average of three determinations
Protocol: (§2) Vero cells were grown in 24-well plates to approximately 90% confluence, and washed twice with MEM medium without FCS. The dilutions containing the proteins or the antibodies, according to the objective of the assay, were then added and incubated for 1 hour at 37° C. After the incubation, the virus was added at a multiplicity of infection of 0.1, followed by a subsequent incubation for 1 hour at 37° C. At the end of the second incubation, the unbound virus was eliminated by washing, and the cells were incubated for 5 days at 37° C. in high density medium (MEM supplemented with non essential aminoacids, 1% FCS, 1% carboxymethylcellulose) in order to propitiate the appearance of lytic plaques. The plaques were visualized by staining with 0.1% Naphtol Blue Black in 0.15 Mol/L sodium acetate. Two replicates were used per experimental point in each assay, and three independent determinations were performed. The inhibition percentage was calculated according to the expression
(§3) The assay for the inhibition of infection was performed on 24-well plates seeded with a monolayer of Vero cells at approximately 90% confluence. The dilution of the virus was adjusted to obtain approximately 20 lytic plaques per well. […] There were no significant reductions when the cells were pre-incubated with BSA or with antibody preparations against an unrelated antigen.

[4] = system: DV3 CH53489; experiment: as above; type: cell-based, dengue virus; details: inhibition percentage; RAP13 and BSA 100 μg/mL, antibody preparations 1/100 dilution; average of three determinations
Protocol: as §2, §3

[5] = system: DV4 TVP360; experiment: as above; type: cell-based, dengue virus; details: inhibition percentage; RAP13 and BSA 100 μg/mL, antibody preparations 1/100 dilution; average of three determinations
Protocol: as §2, §3

[6] = system: DV2 S16803; experiment: as above; type: cell-based, dengue virus
Protocol: FIG. 8. Effect of recombinant RAP on the infection of Vero cells with DV2, strain S16803. Vero monolayers at 90% confluence were pre-incubated with different dilutions of RAPR13 or BSA, for 1 hour at 37° C., followed by the addition of the viral preparation at a multiplicity of infection of 1 and another incubation at 37° C. for 1 hour. After eliminating the unbound viruses, MEM medium supplemented with non-essential aminoacids, 1% FCS and 1% CMC was added, and the cells were incubated for 5 days at 37° C. The lytic plaques were visualized by staining the monolayer with Naphtol Blue Black. The assays were performed in 24-well plates, using duplicates for each point of the assay.
Vero cells were grown in 24-well plates to approximately 90% confluence, and washed twice with MEM medium without FCS. The dilutions containing the proteins or the antibodies, according to the objective of the assay, were then added and incubated for 1 hour at 37° C. After the incubation, the virus was added at a multiplicity of infection of 0.1, followed by a subsequent incubation for 1 hour at 37° C. […] The inhibition percentage was calculated according to the expression […]

[7] = system: Vero cells; experiment: Binding of fluoresceinated proteins to the surface of Vero cells (flow cytometry); type: cell-based, monkey
Protocol: FIG. 7. Inhibition of the binding of DIIIE2J to Vero cells by A2M and RAPR13. The pre-fixed cells were incubated with the fluoresceinated proteins, and the intensity of the fluorescence due to binding of the fluoresceinated ligands to the cells was measured by flow cytometry. Each experimental point represents data gathered from a minimum of 20 000 cells. (A) Binding of A2M and RAPR13 to the cells. The depicted values correspond to the average of the intensity of the fluorescence at each point of the assay minus the fluorescence obtained with untreated cells. (B) and (C) The cells were incubated with fluoresceinated DIIIE2J in the presence or absence of the non-fluoresceinated ligands, using the molar ratio indicated on each case. The % binding was calculated from the ratio of the average intensity of the fluorescence of the cells incubated with the mixture of fluoresceinated DIIIE2J plus the proteins, between that of the cells incubated only with fluoresceinated DIIIE2J.
In the case of cultured Vero cells, they were detached from the surface of the culture flask without using proteases, by incubation with PBS pH 7.4, 5 mM EDTA for 10 min. at 37° C., gently tapping the outside of the flask.
The cells, collected and washed as described above, were incubated in fixing solution (PBS pH 7.4, 2% paraformaldehyde, 0.01% NaN3, 1 mM CaCl2, 1 mM MgCl2 for 30 min at 4° C., and the fixing solution was then eliminated by centrifugation at 350×g for 5 min a 4° C. […] The intensity of the fluorescence was quantified by flow cytometry on a PAS III cytometer (Partec, Germany). The values for each experimental point were calculated from measurements on a minimum of 20 000 cells.
Given that this cell line is derived from monkey kidney cells and that the ligands for the A2MR receptor used in the assays are of human origin, a preliminary and necessary step was the corroboration of the binding of the RAPR13 and A2M MeNH2 proteins to Vero cells. With this aim, these proteins were fluoresceinated, and their binding to the surface of Vero cells was measured using flow cytometry. […]

Row | Molecule | neutralization of the infection of DV2 [1] | protective effect in mice encephalitis model [2] | inhibition of the infection, DV1 [3] | inhibition of the infection, DV3 [4] | inhibition of the infection, DV4 [5] | inhibition of the infection, DV2 ([6]; inhibition percentage, RAP13 and BSA 100 μg/mL, antibody preparations 1/100 dilution, average of three determinations) | inhibition of the infection for DV2, concentration dependence ([6]; lytic plaque reduction assay, dilutions of RAPR13 (FIG. 8)) | binding to the surface of Vero cells ([7]; fluoresceinated proteins (FIG. 7A)) | binding of fluoresceinated A2M_MeNH2 to Vero cells in the presence of unlabelled protein ([7]; unlabelled protein at 100-fold molar excess, 30 min. at 4° C. (FIG. 7B))
1 | Purified A2MR: α-chain of the A2MR receptor purified from human plasma by affinity chromatography on immobilized MeNH2_A2M | potent neutralization | significative protective effect |  |  |  |  |  |  | 
2 | RAPR13: recombinant human LRPAP1 (RAP) protein with N-terminal tag of 6 histidines, SEQ ID. 26 (protein, listed as Homo sapiens, N-terminal His6 tag) MGSSHHHHHHSSGLVPRGSHMYSREKNQPKPSPKRESGEEFRMEKLNQLWEKAQRLHLPPVRLAELHADLKIQERDELAWKKLKLDGLDEDGEKEARLIRNLNVILAKYGLDGKKDARQVTSNSLSGTQEDGLDDPRLEKLWHKAKTSGKFSGEELDKLWREFLHHKEKVHEYNVLLETLSRTEEIHENVISPSDLSDIKGSVLHSRHTELKEKLRSINQGLDRLRRVSHQGYSTEAEFEEPRVIDLWDLAQSANLTDKELEAFREELKHFEAKIEKHNHYQKQLEIAHEKLRHAESVGDGERVSRSREKHALLEGRTKELGYTVKKHLQDLSGRISRARHNEL |  |  | 65 | 60 | 75 | 76 | dependent on the protein concentration | concentration-dependant and saturable binding behavior | decrease in fluorescence
